The data set concerns the molecule itself. Briefly: SEC-MALS; single protein at 5 mg/ml, Superdex 200, 20 mM HEPES pH 7.5, 150 mM NaCl. On the technique in general: Size exclusion chromatography separates by hydrodynamic size, large species first.

B1: BTN2A1 B30.2 domain (domain or fragment, human)
chain: EELRWRRTFLHAVDVVLDPDTAHPDLFLSEDRRSVRRCPFRHLGESVPDNPERFDSQPCVLGRESFASGKHYWEVEVENVIEWTVGVCRDSVERKGEVLLIPQNGFWTLEMHKGQYRAVSSPDRILPLKESLCRVGVFLDYEAGDVSFYNMRDRSHIYTCPRSAFSVPVRPFFRLGCEDSPIFICPALTGANGVTVPEEGLTLHRVGTHQSL
notes: butyrophilin 2A1 (BTN2A1), human, intracellular B30.2 domain with the C-terminal tail; Homodimer by SEC-MALS and in the crystals; source: E. coli BL21 (DE3), purified (Ni-NTA, TEV cleavage, Ni-NTA or DEAE Sepharose)
One may read the stoichiometry N as a count of units in the complex or per binding partner. On to B1, for which the “stoichiometry N” value turned out to be 2.

Values taken from PMC10533412 (Nature, 2023).
